According to the supplement of paper PMC9112550, “Optimization of the antimicrobial peptide Bac7 by deep mutational scanning” (BMC Biology, 2022):

System: Escherichia coli TOP10
Assay: shrunken log2 fold change of peptide-encoding DNA abundance (4.5 h post-induction vs induction); higher = less antimicrobial activity (less host growth inhibition)
Conditions: time post-induction: 4.5 h; library: site-saturation at positions 5, 18, 19, 20
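Also: peptides expressed intracellularly from a pBAD plasmid library in pooled LB shake-flask culture, induced with 0.3% L-arabinose, DNA abundance read by NGS, three biological replicates, DESeq2 with apeglm shrinkage.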

| Sequence | shrunken log2 fold change |
| --- | --- |
| RRIRWRPPRLPRPRPRPSCAPRP | 0.145 |
| RRIRWRPPRLPRPRPRPSCIPRP | -0.261 |
| RRIRWRPPRLPRPRPRPSCSPRP | -0.349 |
| RRIRWRPPRLPRPRPRPSCYPRP | -0.122 |
| RRIRWRPPRLPRPRPRPSEHPRP | -0.0852 |
| RRIRWRPPRLPRPRPRPSFCPRP | -0.136 |
| RRIRWRPPRLPRPRPRPSFGPRP | -0.0482 |
| RRIRWRPPRLPRPRPRPSIVPRP | -0.00221 |
| RRIRWRPPRLPRPRPRPSKQPRP | 0.143 |
| RRIRWRPPRLPRPRPRPSLQPRP | 0.0895 |
| RRIRWRPPRLPRPRPRPSNAPRP | -0.0613 |
| RRIRWRPPRLPRPRPRPSQSPRP | -0.0797 |
| RRIRWRPPRLPRPRPRPSRTPRP | 0.188 |
| RRIRWRPPRLPRPRPRPSRYPRP | -0.483 |
| RRIRWRPPRLPRPRPRPSSIPRP | -0.338 |
| RRIRWRPPRLPRPRPRPSTPPRP | 0.0706 |
| RRIRWRPPRLPRPRPRPSVCPRP | 0.104 |
| RRIRWRPPRLPRPRPRPSVFPRP | 0.222 |
| RRIRWRPPRLPRPRPRPTADPRP | 1.51 |
| RRIRWRPPRLPRPRPRPTARPRP | 0.0278 |
| RRIRWRPPRLPRPRPRPTCCPRP | 1.13 |
| RRIRWRPPRLPRPRPRPTCPPRP | 0.187 |
| RRIRWRPPRLPRPRPRPTCTPRP | 0.441 |
| RRIRWRPPRLPRPRPRPTDAPRP | -0.0515 |
| RRIRWRPPRLPRPRPRPTDCPRP | 0.088 |

| Sequence | shrunken log2 fold change |
| --- | --- |
| RRIRWRPPRLPRPRPRPTDGPRP | 0.32 |
| RRIRWRPPRLPRPRPRPTEQPRP | 0.357 |
| RRIRWRPPRLPRPRPRPTFHPRP | 0.00721 |
| RRIRWRPPRLPRPRPRPTGEPRP | 0.306 |
| RRIRWRPPRLPRPRPRPTGVPRP | 0.334 |
| RRIRWRPPRLPRPRPRPTHFPRP | -0.478 |
| RRIRWRPPRLPRPRPRPTHHPRP | 0.104 |
| RRIRWRPPRLPRPRPRPTHKPRP | 0.396 |
| RRIRWRPPRLPRPRPRPTHWPRP | 0.322 |
| RRIRWRPPRLPRPRPRPTIWPRP | 0.0311 |
| RRIRWRPPRLPRPRPRPTLEPRP | 0.608 |
| RRIRWRPPRLPRPRPRPTLNPRP | 0.139 |
| RRIRWRPPRLPRPRPRPTMRPRP | 0.925 |
| RRIRWRPPRLPRPRPRPTNPPRP | -0.0172 |
| RRIRWRPPRLPRPRPRPTNWPRP | 0.206 |
| RRIRWRPPRLPRPRPRPTQFPRP | 0.0858 |
| RRIRWRPPRLPRPRPRPTREPRP | 0.241 |
| RRIRWRPPRLPRPRPRPTRQPRP | 0.195 |
| RRIRWRPPRLPRPRPRPTRVPRP | 0.825 |
| RRIRWRPPRLPRPRPRPTTFPRP | -0.09 |
| RRIRWRPPRLPRPRPRPTTIPRP | 0.127 |
| RRIRWRPPRLPRPRPRPTTQPRP | -0.0204 |
| RRIRWRPPRLPRPRPRPTVHPRP | -0.189 |
| RRIRWRPPRLPRPRPRPTVPPRP | 0.0399 |
| RRIRWRPPRLPRPRPRPTYCPRP | -0.126 |

| Sequence | shrunken log2 fold change |
| --- | --- |
| RRIRWRPPRLPRPRPRPTYTPRP | -0.136 |
| RRIRWRPPRLPRPRPRPTYWPRP | 0.235 |
| RRIRWRPPRLPRPRPRPVACPRP | -0.052 |
| RRIRWRPPRLPRPRPRPVCEPRP | 0.825 |
| RRIRWRPPRLPRPRPRPVCFPRP | 0.376 |
| RRIRWRPPRLPRPRPRPVCPPRP | 0.142 |
| RRIRWRPPRLPRPRPRPVDNPRP | -0.018 |
| RRIRWRPPRLPRPRPRPVEDPRP | 0.00386 |
| RRIRWRPPRLPRPRPRPVESPRP | 0.0647 |
| RRIRWRPPRLPRPRPRPVEYPRP | -0.00674 |
| RRIRWRPPRLPRPRPRPVFCPRP | 0.119 |
| RRIRWRPPRLPRPRPRPVHDPRP | 0.141 |
| RRIRWRPPRLPRPRPRPVHTPRP | 0.627 |
| RRIRWRPPRLPRPRPRPVHVPRP | 0.109 |
| RRIRWRPPRLPRPRPRPVIAPRP | 0.037 |
| RRIRWRPPRLPRPRPRPVIIPRP | -0.219 |
| RRIRWRPPRLPRPRPRPVIMPRP | -0.273 |
| RRIRWRPPRLPRPRPRPVKEPRP | -0.0992 |
| RRIRWRPPRLPRPRPRPVKRPRP | 0.015 |
| RRIRWRPPRLPRPRPRPVMAPRP | 0.171 |
| RRIRWRPPRLPRPRPRPVMVPRP | 0.0467 |
| RRIRWRPPRLPRPRPRPVNGPRP | -0.295 |
| RRIRWRPPRLPRPRPRPVNIPRP | 0.0116 |
| RRIRWRPPRLPRPRPRPVNPPRP | 0.0699 |
| RRIRWRPPRLPRPRPRPVPDPRP | -0.101 |

| Sequence | shrunken log2 fold change |
| --- | --- |
| RRIRWRPPRLPRPRPRPVSMPRP | -0.00416 |
| RRIRWRPPRLPRPRPRPVSSPRP | 0.117 |
| RRIRWRPPRLPRPRPRPVTGPRP | 0.183 |
| RRIRWRPPRLPRPRPRPVTTPRP | -0.0727 |
| RRIRWRPPRLPRPRPRPVVCPRP | 0.301 |
| RRIRWRPPRLPRPRPRPVVDPRP | 0.0903 |
| RRIRWRPPRLPRPRPRPVVIPRP | -0.101 |
| RRIRWRPPRLPRPRPRPVVPPRP | 0.242 |
| RRIRWRPPRLPRPRPRPVVWPRP | 0.626 |
| RRIRWRPPRLPRPRPRPVWFPRP | 0.563 |
| RRIRWRPPRLPRPRPRPVWLPRP | 0.284 |
| RRIRWRPPRLPRPRPRPVWVPRP | 0.257 |
| RRIRWRPPRLPRPRPRPVWWPRP | 0.729 |
| RRIRWRPPRLPRPRPRPVYPPRP | -0.104 |
| RRIRWRPPRLPRPRPRPVYSPRP | -0.104 |
| RRIRWRPPRLPRPRPRPVYTPRP | -0.242 |
| RRIRWRPPRLPRPRPRPVYVPRP | -0.231 |
| RRIRWRPPRLPRPRPRPWAPPRP | 0.479 |
| RRIRWRPPRLPRPRPRPWASPRP | 0.014 |
| RRIRWRPPRLPRPRPRPWATPRP | 0.168 |
| RRIRWRPPRLPRPRPRPWCSPRP | -0.329 |
| RRIRWRPPRLPRPRPRPWDAPRP | 0.22 |
| RRIRWRPPRLPRPRPRPWDRPRP | 0.215 |
| RRIRWRPPRLPRPRPRPWEKPRP | 0.624 |
| RRIRWRPPRLPRPRPRPWFSPRP | 0.0565 |

| Sequence | shrunken log2 fold change |
| --- | --- |
| RRIRWRPPRLPRPRPRPWIPPRP | -0.0989 |
| RRIRWRPPRLPRPRPRPWKCPRP | -0.01 |
| RRIRWRPPRLPRPRPRPWLGPRP | 0.00929 |
| RRIRWRPPRLPRPRPRPWNHPRP | -0.0518 |
| RRIRWRPPRLPRPRPRPWNVPRP | 0.0207 |
| RRIRWRPPRLPRPRPRPWQAPRP | 0.00325 |
| RRIRWRPPRLPRPRPRPWQCPRP | -0.233 |
| RRIRWRPPRLPRPRPRPWQPPRP | -0.0542 |
| RRIRWRPPRLPRPRPRPWRPPRP | 0.178 |
| RRIRWRPPRLPRPRPRPWRVPRP | -0.245 |
| RRIRWRPPRLPRPRPRPWSFPRP | -0.0355 |
| RRIRWRPPRLPRPRPRPWVIPRP | 0.00419 |
| RRIRWRPPRLPRPRPRPWVNPRP | -0.183 |
| RRIRWRPPRLPRPRPRPWWHPRP | 0.357 |
| RRIRWRPPRLPRPRPRPWYWPRP | -0.209 |
| RRIRWRPPRLPRPRPRPYCCPRP | -0.569 |
| RRIRWRPPRLPRPRPRPYCKPRP | -0.864 |
| RRIRWRPPRLPRPRPRPYDGPRP | -0.337 |
| RRIRWRPPRLPRPRPRPYDNPRP | -0.263 |
| RRIRWRPPRLPRPRPRPYEEPRP | -0.334 |
| RRIRWRPPRLPRPRPRPYEKPRP | -0.139 |
| RRIRWRPPRLPRPRPRPYGKPRP | 0.027 |
| RRIRWRPPRLPRPRPRPYGVPRP | 0.00576 |
| RRIRWRPPRLPRPRPRPYIFPRP | -0.242 |
| RRIRWRPPRLPRPRPRPYKKPRP | -0.225 |

| Sequence | shrunken log2 fold change |
| --- | --- |
| RRIRWRPPRLPRPRPRPYLGPRP | -0.616 |
| RRIRWRPPRLPRPRPRPYMMPRP | -0.842 |
| RRIRWRPPRLPRPRPRPYPYPRP | 0.0754 |
| RRIRWRPPRLPRPRPRPYQQPRP | -0.0018 |
| RRIRWRPPRLPRPRPRPYRIPRP | -0.209 |
| RRIRWRPPRLPRPRPRPYSAPRP | -0.147 |
| RRIRWRPPRLPRPRPRPYTKPRP | 0.000534 |
| RRIRWRPPRLPRPRPRPYTLPRP | -0.681 |
| RRIRWRPPRLPRPRPRPYWNPRP | -0.645 |
| RRIRYRPPRLPRPRPRPAAAPRP | 0.455 |
| RRIRYRPPRLPRPRPRPAATPRP | 0.208 |
| RRIRYRPPRLPRPRPRPACFPRP | -0.166 |
| RRIRYRPPRLPRPRPRPACKPRP | -0.0277 |
| RRIRYRPPRLPRPRPRPACWPRP | 0.47 |
| RRIRYRPPRLPRPRPRPACYPRP | -0.553 |
| RRIRYRPPRLPRPRPRPAEMPRP | -1.02 |
| RRIRYRPPRLPRPRPRPAGCPRP | -0.177 |
| RRIRYRPPRLPRPRPRPAGTPRP | -0.0595 |
| RRIRYRPPRLPRPRPRPAHWPRP | 0.0585 |
| RRIRYRPPRLPRPRPRPAIHPRP | -0.406 |
| RRIRYRPPRLPRPRPRPAKIPRP | -0.0227 |
| RRIRYRPPRLPRPRPRPALGPRP | 0.0458 |
| RRIRYRPPRLPRPRPRPALLPRP | -0.0984 |
| RRIRYRPPRLPRPRPRPALPPRP | -0.0414 |
| RRIRYRPPRLPRPRPRPANAPRP | 0.00281 |
